Test results from US8343490B2, “Monoclonal antibody SC104 and derivative thereof specifically binding to a sialyltetraosyl carbohydrate as a potential anti-tumor therapeutic agent” (Cephalon Australia Pty Ltd, priority 2004, dated 2013).
Read-outs that look alike come from different tables or passages of the source.

Key:
[1] = tested on: C170 cells; assay: C170 cell ELISA (hybridoma screening); format: binding
Method: ELISA. Antibody responses in the serum of immunised mice were assayed by titration using a standard non-competitive ELISA procedure. 96-well tissue culture plates were coated with C170 cells at a cell density of 5×10^5 cells/ml (100 μl/well) in 10% foetal bovine serum in RPMI 1640. The plates were incubated overnight at 37° C., 5% CO2, 95% air. The cells were then washed twice in phosphate buffered saline (pH7.3, PBS) prior to being fixed with 0.5% glutaraldehyde in PBS (10 min, 25° C., 100 μl/well). Remaining non-specific binding sites were blocked by incubation for 1 hr with 1% bovine serum albumin (fraction V from Sigma Chemicals Ltd.) in PBS. The cells were washed three times with a washing solution consisting of 0.05% Tween 20 in phosphate buffered saline before assaying post-boost serum for binding to C170 cells using a non-competitive sandwich ELISA. The pre-immunisation serum was used as a negative control. • Immunohistochemistry. Binding of hybridoma supernatants to tumour tissues was determined by indirect immunoperoxidase staining of frozen colorectal tumour sections. […] The bound antibody was detected with rabbit anti-mouse Ig conjugated to peroxidase (Dako Ltd., Bucks., UK) and following extensive washing the slides were stained with 0.05% diaminobenzidine and 0.01% H2O2 in 0.05M Tris-HCl, pH7.6 and counterstained with haematoxylin. […]

[2] = tested on: SC104 antigen purified from sputum; assay: Cross-reaction of antigen purified from sputum with antibodies; format: binding; settings: FIG. 13
Excerpt: • SC104 antigen purification and characterisation. SC104 specific antigen was purified from sputum samples mixed in a 1:1 ratio with 0.1M pH 7.6 Tris 0.5% NP40. Briefly an immuno-affinity was produced cross linking SC104 S136A to Protein A Cl-6B sepharose using Dimethyl pimelimidate.2HCl as the covalent linker Results

[3] = tested on: caspase 6 in C170 cells; assay: Caspase 6 activation (Western blot); format: cell-based; settings: 6 hrs; SC104 at 10, more intensely at 100 μg/ml; FIG. 18
Method: Caspase 6 activation by SC104 mab. 2×10^5 colorectal C170 cells were exposed to 1-100 μg/ml of SC104 for 6 hrs and cell lysates generated. The lysates were subsequently run a 12% SDS-PAGE, Western blotted and probed with a caspase 6 specific antibody (Cleaved caspase 6 antibody, Cell Signalling Technology (NEB), catalogue number 9761). Cells exposed to SC101 were included as a negative control.

[4] = ELISA on tumour glycolipid extract; format: binding; settings: FIG. 4
Method: (§1) • Binding to purified antigen preparations. […] Binding of SC104 mab was assayed by ELISA as described above.

[5] = tested on: C146; assay: Inhibition of cell growth, MTS; format: cell-based; settings: 30 μg/ml
Method: (§2) Inhibition of cell growth. 1×10^3 colorectal C170, C168, C146, CaCO2, Colo205, LoVo and HT29 cells were aliquoted into individual wells of a flat bottomed 96-well plate and left to adhere overnight at 37° C. The following day the cells were treated with: 10, 3, 1, 0.3 and 0 μg/ml of SC104 mab. As a negative control 791T/36 at concentrations 100, 30, 10, 3 and 0 μg/ml, was titrated against each concentration of drug used. Triplicate wells were used. Cells were left for 5 days at 37° C. prior to the addition of MTS reagent to each well and optical density reading at 490 nm.

[6] = tested on: C170; assay: Inhibition of cell growth, MTS; format: cell-based
Method: as §2

[7] = tested on: HT-29; assay: Inhibition of cell growth, MTS; format: cell-based; settings: 30 μg/ml
Method: as §2

[8] = tested on: C168; assay: Inhibition of cell growth, MTS; format: cell-based; settings: 30 μg/ml
Method: as §2

[9] = tested on: CaCO2; assay: Inhibition of cell growth, MTS; format: cell-based; settings: 30 μg/ml
Method: as §2

[10] = tested on: Colo205; assay: Inhibition of cell growth, MTS; format: cell-based
Method: as §2

[11] = tested on: C170 xenografts; assay: C170 xenograft therapeutic model; format: in vivo, nude mice; settings: administered therapeutically, after C170 xenograft implantation; FIG. 27
Method: (§3) Therapeutic model. The colorectal tumour cell line, C170 was maintained in serial passage in nude mice. For therapy the mice were sacrificed and the tumours excised. The tumour was finely minced and […] pieces were implanted, under anaesthetic, subcutaneously into 30 male mice which had been randomly allocated to 4 experimental groups.
Mice were explanted with 3 mm^3 pieces of C170 xenografts. […] On the same days mice were also injected intraperitonealy with 0.2 mg of SC104 mab. Control mice received either SC104 alone or control mouse IgG antibody with 5FU/leucovorin. Tumour size was measured by callipers and tumour cross sectional area calculated on days 12, 16, 19 and 23.

[12] = tested on: C14 antigen (90 KDa glycoprotein purified from saliva); assay: ELISA on C14 antigen; format: binding; settings: FIG. 4
Method: as §1

[13] = tested on: C170 xenografts; format: in vivo
Method: as §3, with “Prevention” for “Therapeutic”
Mice were explanted with 3 mm^3 pieces of C170 xenografts. Groups of mice were treated with 5-FU/leucovorin (12.5 mg/Kg) by intravenous infusion on days 1, 3, 5, 7 and 28. On the same days mice were also injected intraperitonealy with 0.2 mg of SC104 mab. Control mice received either SC104 alone or control mouse IgG antibody with 5-FU/leucovorin. Tumour size was measured by callipers and tumour cross sectional area calculated on days 7, 9, 12, 14 and 16. Animals were weighed to assess the toxicity of treatment. At the termination of the experiment tumours were weighed to assess anti-tumour efficacy.

[14] = tested on: C170 cells; assay: FACS antibody saturation on fresh and fixed cells; format: binding
Method: FACS on fresh and fixed cells. C170 cells (10^5) either fresh or fixed with 0.5% glutaraldehyde for 1 hr were resuspended in 100 μl of SC104 mab (0-100 μg/ml) and incubated on ice for 1 hr. After washing the samples 3 times in RPMI/10% FCS cells were incubated with FITC labelled rabbit anti-mouse (1/80: Dako Ltd, Bucks, UK) antibody and incubated on ice for 30 minutes prior to analysing by FACS as described above.

[15] = concentrations in excess of 10 μg/ml, FIG. 20

B1: SC104: mouse IgG1 monoclonal antibody specific for a sialyltetraosyl carbohydrate, raised by immunisation with colorectal cancer cell lines (antibody, V domains shown)
VH: DVQLQESGPDLVKPSQSLSLTCTVTGYSITSGYSWHWVRQFPGNKMEWMGHIHFSGRPTYNPSLSSRISITRDTSKNQFLLQLKFVTTEDTSTYFCARKGKGSDDGLNYWGQGISVTVSS
VL: ENVLTQSPVIMSASPGEKVTMTCSASSSLSYIHWYQQKSRTSPKLWIYDTSNLASGVPGRFSGSGSGNSYSLTISSMEAEDVATYYCFQGSEYPLTFGGGTKLEMT
C170 ELISA (OD 405 nm) [1]: 0.301 OD 405 nm | cross-reaction with antigen purified from sputum [2]: cross-react | caspase 6 activation [3]: activation of caspase 6 | binding to methanol/chloroform tumour glycolipid extract by ELISA [4]: A similar result was obtained | % inhibition of cell growth as measured by MTS staining [5]: 65% | % inhibition of cell growth as measured by MTS staining ([6]; 30 μg/ml): 70% | inhibition of growth of adherent cells (MTS) [6, 15]: inhibited growth | % inhibition of cell growth as measured by MTS staining [7]: 5% | % inhibition of cell growth as measured by MTS staining [8]: 55% | % inhibition of cell growth as measured by MTS staining [9]: 20% | % inhibition of cell growth as measured by MTS staining ([10]; 30 μg/ml): 55% | inhibition of growth of adherent cells (MTS) [10, 15]: inhibited growth | inhibition of tumour growth [11]: neither 5FU nor SC104 alone significantly inhibited growth | binding to Lewis ^y/b expressing 90 KDa glycoprotein from saliva by ELISA [12]: bound | survival of mice ([13]; Log Rank, FIG. 26b): significant improvement of survival | inhibition of tumour growth of freshly explanted tumours ([13]; SC104 200 μg/dose ip, 5-FU/leucovorin at maximum tolerated dose, FIG. 26a): 50% | inhibition of tumour growth ([13]; day 9): 32% | inhibition of tumour growth ([13]; day 12): 44% | inhibition of tumour growth ([13]; day 14): 54% | inhibition of tumour growth ([13]; day 16): 62% | number of SC104 haptens at the surface of C170 tumour cells [14]: approximately 4×10^5 sites per cell | antigen saturation on fresh and fixed cells ([14]; SC104 0-100 μg/ml, FIG. 22): not saturated even at SC104 concentration of 100 μg/ml
